According to paper PMC8564726 (2021):

Columns and labels:
[1] = target: H3K9me2 dimethylated mononucleosome (methyl-lysine analog), 147 bp 601 DNA 5'-fluorescein-labeled (dimethyl-lysine analog (MLA) at K9); experiment: FP
[2] = target: H3K9me1 monomethylated mononucleosome (methyl-lysine analog), 147 bp 601 DNA 5'-fluorescein-labeled (monomethyl-lysine analog (MLA) at K9); experiment: FP
[3] = target: T1, H3K9me0 peptide (Homo sapiens, unmethylated K9; fluorescein label; H3(1-20) in mature numbering (initiator Met removed)); experiment: FP; lower limit, no saturation
[4] = target: T1, H3K9me0 peptide; experiment: FP; MBP-tagged full-length G9a; lower limit, no saturation
[5] = target: unmethylated mononucleosome (H3K9me0), 147 bp 601 DNA 5'-fluorescein-labeled; experiment: FP

Binder	Kd [1] [µM]	Kd [2] [µM]	other results
G9a ANK-SET homodimer (complex) DAPGRADTSQPSARMRGHGEPRRPPCDPLADTIDSSGPSLTLPNGGCLSAVGLPPGPGREALEKALVIQESERRKKLRFHPRQLYLSVKQGELQKVILMLLDNLDPNFQSDQQSKRTPLHAAAQKGSVEICHVLLQAGANINAVDKQQRTPLMEAVVNNHLEVARYMVQLGGCVYSKEEDGSTCLHHAAKIGNLEMVSLLLSTGQVDVNAQDSGGWTPIIWAAEHKHIDVIRMLLTRGADVTLTDNEENICLHWASFTGSAAIAEVLLNAQCDLHAVNYHGDTPLHIAARESYHDCVLLFLSRGANPELRNKEGDTAWDLTPERSDVWFALQLNRKLRLGVGNRAVRTEKIICRDVARGYENVPIPCVNGVDGEPCPEDYKYISENCETSTMNIDRNITHLQHCTCVDDCSSSNCLCGQLSIRCWYDKDGRLLQEFNKIEPPLIFECNQACSCWRSCKNRVVQSGIKVRLQLYRTAKMGWGVRALQTIPQGTFICEYVGELISDAEADVREDDSYLFDLDNKDGEVYCIDARYYGNISRFINHLCDPNIIPVRVFMLHQDLRFPRIAFFSSRDIRTGEELGFDYGDRFWDIKSKYFTCQCGSEKCKHSAEAIALEQSRLARLDPHPELLPDLSSLPPINT	18.4	14.8	Kd [3]: > 100 µM
full-length G9a (enzyme) MRGLPRGRGLMRARGRGRAAPTGGRGRGRGGAHRGRGRPRSLLSLPRAQASWAPQLPAGLTGPPVPCLPSQGEAPAEMGALLLEKEPRGAAERVHSSLGDTPQSEETLPKANPDSLEPAGPSSPASVTVTVGDEGADTPVGAASLIGDEPESLEGDGGRIVLGHATKSFPSSPSKGGACPSRAKMSMTGAGKSPPSVQSLAMRLLSMPGAQGAATAGPEPSPATTAAQEGQPKVHRARKTMSKPSNGQPPIPEKRPPEVQHFRMSDDMHLGKVTSDVAKRRKLNSGSLSEDLGSAGGSGDIILEKGEPRPLEEWETVVGDDFSLYYDAYSVDERVDSDSKSEVEALAEQLSEEEEEEEEEEEEEEEEEEEEEEEEEDEESGNQSDRSGSSGRRKAKKKWRKDSPWVKPSRKRRKREPPRAKEPRGVNGVGSSGPSEYMEVPLGSLELPSEGTLSPNHAGVSNDTSSLETERGFEELPLCSCRMEAPKIDRISERAGHKCMATESVDGELLGCNAAILKRETMRPSSRVALMVLCEAHRARMVKHHCCPGCGYFCTAGTFLECHPDFRVAHRFHKACVSQLNGMVFCPHCGEDASEAQEVTIPRGDGGTPPIGTAAPALPPLAHDAPGRADTSQPSARMRGHGEPRRPPCDPLADTIDSSGPSLTLPNGGCLSAVGLPPGPGREALEKALVIQESERRKKLRFHPRQLYLSVKQGELQKVILMLLDNLDPNFQSDQQSKRTPLHAAAQKGSVEICHVLLQAGANINAVDKQQRTPLMEAVVNNHLEVARYMVQLGGCVYSKEEDGSTCLHHAAKIGNLEMVSLLLSTGQVDVNAQDSGGWTPIIWAAEHKHIDVIRMLLTRGADVTLTDNEENICLHWASFTGSAAIAEVLLNAQCDLHAVNYHGDTPLHIAARESYHDCVLLFLSRGANPELRNKEGDTAWDLTPERSDVWFALQLNRKLRLGVGNRAVRTEKIICRDVARGYENVPIPCVNGVDGEPCPEDYKYISENCETSTMNIDRNITHLQHCTCVDDCSSSNCLCGQLSIRCWYDKDGRLLQEFNKIEPPLIFECNQACSCWRSCKNRVVQSGIKVRLQLYRTAKMGWGVRALQTIPQGTFICEYVGELISDAEADVREDDSYLFDLDNKDGEVYCIDARYYGNISRFINHLCDPNIIPVRVFMLHQDLRFPRIAFFSSRDIRTGEELGFDYGDRFWDIKSKYFTCQCGSEKCKHSAEAIALEQSRLARLDPHPELLPDLSSLPPINT	–	–	Kd [4]: > 66 µM
G9a-GLP ANK-SET heterodimer (complex) chain 1: DAPGRADTSQPSARMRGHGEPRRPPCDPLADTIDSSGPSLTLPNGGCLSAVGLPPGPGREALEKALVIQESERRKKLRFHPRQLYLSVKQGELQKVILMLLDNLDPNFQSDQQSKRTPLHAAAQKGSVEICHVLLQAGANINAVDKQQRTPLMEAVVNNHLEVARYMVQLGGCVYSKEEDGSTCLHHAAKIGNLEMVSLLLSTGQVDVNAQDSGGWTPIIWAAEHKHIDVIRMLLTRGADVTLTDNEENICLHWASFTGSAAIAEVLLNAQCDLHAVNYHGDTPLHIAARESYHDCVLLFLSRGANPELRNKEGDTAWDLTPERSDVWFALQLNRKLRLGVGNRAVRTEKIICRDVARGYENVPIPCVNGVDGEPCPEDYKYISENCETSTMNIDRNITHLQHCTCVDDCSSSNCLCGQLSIRCWYDKDGRLLQEFNKIEPPLIFECNQACSCWRSCKNRVVQSGIKVRLQLYRTAKMGWGVRALQTIPQGTFICEYVGELISDAEADVREDDSYLFDLDNKDGEVYCIDARYYGNISRFINHLCDPNIIPVRVFMLHQDLRFPRIAFFSSRDIRTGEELGFDYGDRFWDIKSKYFTCQCGSEKCKHSAEAIALEQSRLARLDPHPELLPDLSSLPPINT chain 2: QEKSLAAEGRADTTTGSIAGAPEDERSQSTAPQAPECFDPAGPAGLVRPTSGLSQGPGKETLESALIALDSEKPKKLRFHPKQLYFSARQGELQKVLLMLVDGIDPNFKMEHQSKRSPLHAAAEAGHVDICHMLVQAGANIDTCSEDQRTPLMEAAENNHLDAVKYLIKAGAQVDPKDAEGSTCLHLAAKKGHYDVVQYLLSNGQMDVNCQDDGGWTPMIWATEYKHVELVKLLLSKGSDINIRDNEENICLHWAAFSGCVDIAEILLAAKCDLHAVNIHGDSPLHIAARENRYDCVVLFLSRDSDVTLKNKEGETPLQCASLSSQVWSALQMSKALRDSAPDKPVAVEKTVSRDIARGYERIPIPCVNAVDSELCPTNYKYVSQNCVTSPMNIDRNITHLQYCVCVDDCSSSTCMCGQLSMRCWYDKDGRLLPEFNMAEPPLIFECNHACSCWRNCRNRVVQNGLRARLQLYRTQDMGWGVRSLQDIPLGTFVCEYVGELISDSEADVREEDSYLFDLDNKDGEVYCIDARFYGNVSRFINHHCEPNLVPVRVFMSHQDLRFPRIAFFSTRLIQAGEQLGFDYGERFWDVKGKLFSCRCGSSKCRHSSAALAQRQASAAQEPQENGLPDTSSAAAADPL	4.76	2.26	–
GLP ANK-SET homodimer (complex) QEKSLAAEGRADTTTGSIAGAPEDERSQSTAPQAPECFDPAGPAGLVRPTSGLSQGPGKETLESALIALDSEKPKKLRFHPKQLYFSARQGELQKVLLMLVDGIDPNFKMEHQSKRSPLHAAAEAGHVDICHMLVQAGANIDTCSEDQRTPLMEAAENNHLDAVKYLIKAGAQVDPKDAEGSTCLHLAAKKGHYDVVQYLLSNGQMDVNCQDDGGWTPMIWATEYKHVELVKLLLSKGSDINIRDNEENICLHWAAFSGCVDIAEILLAAKCDLHAVNIHGDSPLHIAARENRYDCVVLFLSRDSDVTLKNKEGETPLQCASLSSQVWSALQMSKALRDSAPDKPVAVEKTVSRDIARGYERIPIPCVNAVDSELCPTNYKYVSQNCVTSPMNIDRNITHLQYCVCVDDCSSSTCMCGQLSMRCWYDKDGRLLPEFNMAEPPLIFECNHACSCWRNCRNRVVQNGLRARLQLYRTQDMGWGVRSLQDIPLGTFVCEYVGELISDSEADVREEDSYLFDLDNKDGEVYCIDARFYGNVSRFINHHCEPNLVPVRVFMSHQDLRFPRIAFFSTRLIQAGEQLGFDYGERFWDVKGKLFSCRCGSSKCRHSSAALAQRQASAAQEPQENGLPDTSSAAAADPL	–	5	–
G9aS-GLP (protein) chain 1: AHDAPGRADTSQPSARMRGHGEPRRPPCDPLADTIDSSGPSLTLPNGGCLSAVGLPPGPGREALEKALVIQESERRKKLRFHPRQLYLSVKQGELQKVILMLLDNLDPNFQSDQQSKRTPLHAAAQKGSVEICHVLLQAGANINAVDKQQRTPLMEAVVNNHLEVARYMVQLGGCVYSKEEDGSTCLHHAAKIGNLEMVSLLLSTGQVDVNAQDSGGWTPIIWAAEHKHIDVIRMLLTRGADVTLTDNEENICLHWASFTGSAAIAEVLLNAQCDLHAVNYHGDTPLHIAARESYHDCVLLFLSRGANPELRNKEGDTAWDLTPERSDVWFALQLNRKLRLGVGNRAVRTEKIICRDVARGYENVPIPCVNGVDGEPCPEDYKYISENCETSTMNIDRNITHLQHCTCVDDCSSSNCLCGQLSIRCWYDKDGRLLQEFNKIEPPLIFECNQACSCWRSCKNRVVQSGIKVRLQLYRTAKMGWGVRALQTIPQGTFICEVVGELISDAEADVREDDSYLFDLDNKDGEVYCIDARYYGNISRFINHLCDPNIIPVRVFMLHQDLRFPRIAFFSSRDIRTGEELGFDFGDRFWDIKSKYFTCQCGSEKCKHSAEAIALEQSRLARLDPHPELLPDLSSLPPINT chain 2: PGQEKSLAAEGRADTTTGSIAGAPEDERSQSTAPQAPECFDPAGPAGLVRPTSGLSQGPGKETLESALIALDSEKPKKLRFHPKQLYFSARQGELQKVLLMLVDGIDPNFKMEHQSKRSPLHAAAEAGHVDICHMLVQAGANIDTCSEDQRTPLMEAAENNHLDAVKYLIKAGAQVDPKDAEGSTCLHLAAKKGHYDVVQYLLSNGQMDVNCQDDGGWTPMIWATEYKHVELVKLLLSKGSDINIRDNEENICLHWAAFSGCVDIAEILLAAKCDLHAVNIHGDSPLHIAARENRYDCVVLFLSRDSDVTLKNKEGETPLQCASLSSQVWSALQMSKALRDSAPDKPVAVEKTVSRDIARGYERIPIPCVNAVDSELCPTNYKYVSQNCVTSPMNIDRNITHLQYCVCVDDCSSSTCMCGQLSMRCWYDKDGRLLPEFNMAEPPLIFECNHACSCWRNCRNRVVQNGLRARLQLYRTQDMGWGVRSLQDIPLGTFVCEYVGELISDSEADVREEDSYLFDLDNKDGEVYCIDARFYGNVSRFINHHCEPNLVPVRVFMSHQDLRFPRIAFFSTRLIQAGEQLGFDYGERFWDVKGKLFSCRCGSSKCRHSSAALAQRQASAAQEPQENGLPDTSSAAAADPL	–	–	Kd [5]: > 70 µM
